Results on four molecules are retold here after paper PMC10637973 (The Journal of Biological Chemistry, 2023).

One assay has as its target T1, mono-ubiquitin (UniProt P0CG47 1-76).
T1 construct: ubiquitin (the reaction product, residues 1-76); also called product ubiquitin; source: E. coli BL21(DE3)-Codon Plus; purification of the ubiquitin constructs not described
The assay is described as follows: ITC; ubiquitin samples (200–500 μM) titrated into USP11 samples (20–30 μM); 50 mM Tris-Cl, pH 7.5, 150 mM NaCl, 1% (v/v) glycerol; 25 °C; one-site binding model. Conditions: both partners purified.

A further assay has as its target T2, linear diubiquitin (UniProt P0CG47 1-76; P0CG47 1-76).
T2 construct: ubiquitin, distal moiety (residues 1-76); ubiquitin, proximal moiety, its Met1 (Met77 of the chain) joined by a peptide bond to Gly76 of the distal moiety; source: E. coli BL21(DE3)-Codon Plus; purification of the ubiquitin constructs not described
The description is as above. The conditions noted are these: both partners purified.

Positions count from the first letter of the chain named. Names and notes keep the numbering of the source.

B1: USP11-D1D2 (enzyme, human)
chain: MSEEDEDFKGQPGICGLTNLGNTCFMNSALQCLSNVPQLTEYFLNNCYLEELNFRNPLGMKGEIAEAYADLVKQAWSGHHRSIVPHVFKNKVGHFASQFLGYQQHDSQELLSFLLDGLHEDLNRVKKKEYVELCDAAGRPDQEVAQEAWQNHKRRNDSVIVDTFHGLFKSTLVCPDCGNVSVTFDPFCYLSVPLPASTSKPVRLQECIELFTTVETLEKENPWYCPSCKQHQLATKKLDLWMLPEILIIHLKRFSYTKFSREKLDTLVEFPIRDLDFSEFVIQPQNESNPELYKYDLIAVSNHYGGMRDGHYTTFACNKDSGQWHYFDDNSVSPVNENQIESKAAYVLFYQRQDVARRLL
notes: USP11, human, catalytic subdomain D1, residues Met295-Pro489; numbering of UniProt P51784; linker that replaces the insertion between subdomains D1 and D2; USP11, human, catalytic subdomain D2, residues Pro778-Leu937; also called USP11 catalytic core; USP11 catalytic domain; source: E. coli BL21(DE3)-Codon Plus, purified (Ni2+ HiTrap chelating column, SEC Superdex 200); not shown: His tag (from …)
As for B1, the Kd (commonly the equilibrium constant for the complex coming apart) in the assay with mono-ubiquitin was around 3500 nM.

B2: USP11-D1D2 H399Q (enzyme, human)
chain: B1 chain with H105Q
notes: USP11, human, catalytic subdomain D1, residues Met295-Pro489; numbering of UniProt P51784; linker that replaces the insertion between subdomains D1 and D2; USP11, human, catalytic subdomain D2, residues Pro778-Leu937; source: E. coli BL21(DE3)-Codon Plus, purified (Ni2+ HiTrap chelating column, SEC Superdex 200); not shown: His tag (from the Ni2+ chelating column)
In the assay with mono-ubiquitin, B2 displayed a Kd of around 2000 nM.

B3: USP11-D1D2 R885G (enzyme, human)
chain: B1 chain with R308G
notes: as for B2
The molecule B3 yielded a Kd with mono-ubiquitin of 1100 nM. This counts as single-digit micromolar.

B4: USP11-D1D2 C318S/D886G (enzyme, human)
chain: B1 chain with C24S, D309G
notes: USP11, human, catalytic subdomain D1, residues Met295-Pro489; numbering of UniProt P51784; linker that replaces the insertion between subdomains D1 and D2; USP11, human, catalytic subdomain D2, residues Pro778-Leu937; Made from the USP11-D1D2 C318S template; source: E. coli BL21(DE3)-Codon Plus, purified (Ni2+ HiTrap chelating column, SEC Superdex 200); not shown: His tag (from the Ni2+ chelating …)
Turning to B4, the binding result with linear diubiquitin is “binds”.
